Measured values from paper PMC4810246.

B1: porcine aminopeptidase N (pAPN) ectodomain with a C-terminal His6 tag (receptor)
chain: QSKPWNRYRLPTTLLPDSYNVTLRPYLTPNADGLYIFKGKSIVRLLCQEPTDVIIIHSKKLNYTTQGHMVVLRGVGDSQVPEIDRTELVELTEYLVVHLKGSLQPGHMYEMESEFQGELADDLAGFYRSEYMEGNVKKVLATTQMQSTDARKSFPCFDEPAMKATFNITLIHPNNLTALSNMPPKGSSTPLAEDPNWSVTEFETTPVMSTYLLAYIVSEFQSVNETAQNGVLIRIWARPNAIAEGHGMYALNVTGPILNFFANHYNTSYPLPKSDQIALPDFNAGAMENWGLVTYRENALLFDPQSSSISNKERVVTVIAHELAHQWFGNLVTLAWWNDLWLNEGFASYVEYLGADHAEPTWNLKDLIVPGDVYRVMAVDALASSHPLTTPAEEVNTPAQISEMFDSISYSKGASVIRMLSNFLTEDLFKEGLASYLHAFAYQNTTYLDLWEHLQKAVDAQTSIRLPDTVRAIMDRWTLQMGFPVITVDTKTGNISQKHFLLDSESNVTRSSAFDYLWIVPISSIKNGVMQDHYWLRDVSQAQNDLFKTASDDWVLLNVNVTGYFQVNYDEDNWRMIQHQLQTNLSVIPVINRAQVIYDSFNLATAHMVPVTLALDNTLFLNGEKEYMPWQAALSSLSYFSLMFDRSEVYGPMKKYLRKQVEPLFQHFETLTKNWTERPENLMDQYSEINAISTACSNGLPQCENLAKTLFDQWMSDPENNPIHPNLRSTIYCNAIAQGGQDQWDFAWGQLQQAQLVNEADKLRSALACSNEVWLLNRYLGYTLNPDLIRKQDATSTINSIASNVIGQPLAWDFVQSNWKKLFQDYGGGSFSFSNLIQGVTRRFSSEFELQQLEQFKKNNMDVGFGSGTRALEQALEKTKANIKWVKENKEVVLNWFIEHS

Tests used:
[1] = biological target: porcine aminopeptidase N (pAPN) ectodomain with a C-terminal His6 tag (UniProt P15145); test: ELISA; conditions: read off a plot
[2] = biological target: the three mutant proteins; test: ELISA; plates coated overnight at 4 °C with IgG4 Fc-tagged S1 fragments or mutants (60 μg/mL or 120 to 1.875 μg/mL), blocked with BSA, incubated with His6-tagged pAPN (50 μg/mL) 2 h at RT; anti-His detection
[3] = S protein 1.875 μg/mL, parent: est. 0.25
[4] = S protein 3.75 μg/mL, parent: est. 0.42
[5] = S protein 7.5 μg/mL, parent: est. 0.70
[6] = S protein 15 μg/mL, parent: est. 1.2
[7] = S protein 30 μg/mL, parent: est. 1.7
[8] = S protein 60 μg/mL, parent: est. 2.0
[9] = S proteins coated at 60 μg/mL, pAPN in solution, parent: est. 1.9

| Molecule | response [1, 3] | response [1, 4] | response [1, 5] | response [1, 6] | response [1, 7] | response [1, 8] | response [1, 9] | percent reduction of receptor-binding activity against wild-type S477–629 [2] |
| --- | --- | --- | --- | --- | --- | --- | --- | --- |
| PEDV CHGD-01 S1 C-terminus fragment S477-629 with a C-terminal IgG4 Fc tag residues 556-563 replaced by HCoV-NL63 residues 534-541 (RBM2-1) | 0.15 Abs (630 nm) | 0.32 Abs (630 nm) | 0.7 Abs (630 nm) | 0.88 Abs (630 nm) | 0.93 Abs (630 nm) | 1.1 Abs (630 nm) | 1.2 Abs (630 nm) |  |
| PEDV CHGD-01 S1 C-terminus fragment S477-629 with a C-terminal IgG4 Fc tag residues 521-534 replaced by HCoV-NL63 residues 493-506 (RBM1-1) | 0.13 Abs (630 nm) | 0.25 Abs (630 nm) | 0.6 Abs (630 nm) | 0.98 Abs (630 nm) | 1 Abs (630 nm) | 1.1 Abs (630 nm) | 1.2 Abs (630 nm) |  |
| PEDV CHGD-01 S1 C-terminus fragment S477-629 with a C-terminal IgG4 Fc tag residues 607-615 replaced by SGSGS (RBM3-2) | 0.05 Abs (630 nm) | 0.06 Abs (630 nm) | 0.13 Abs (630 nm) | 0.34 Abs (630 nm) | 0.8 Abs (630 nm) | 1.2 Abs (630 nm) | 1.4 Abs (630 nm) |  |
| B1 |  |  |  |  |  |  |  | 30 to 40% |
